Here are results for three molecules from publication PMC7440919, “Cryo-EM structure of the lysosomal chloride-proton exchanger CLC-7 in complex with OSTM1” (eLife, 2020).

The stoichiometry N is a count of units in the complex or per binding partner.

B2: human CLC-7 (natural protein, UniProt P51798 1-805, looked up)
chain: MANVSKKVSWSGRDRDDEEAAPLLRRTARPGGGTPLLNGAGPGAARQSPRSALFRVGHMSSVELDDELLDPDMDPPHPFPKEIPHNEKLLSLKYESLDYDNSENQLFLEEERRINHTAFRTVEIKRWVICALIGILTGLVACFIDIVVENLAGLKYRVIKGNIDKFTEKGGLSFSLLLWATLNAAFVLVGSVIVAFIEPVAAGSGIPQIKCFLNGVKIPHVVRLKTLVIKVSGVILSVVGGLAVGKEGPMIHSGSVIAAGISQGRSTSLKRDFKIFEYFRRDTEKRDFVSAGAAAGVSAAFGAPVGGVLFSLEEGASFWNQFLTWRIFFASMISTFTLNFVLSIYHGNMWDLSSPGLINFGRFDSEKMAYTIHEIPVFIAMGVVGGVLGAVFNALNYWLTMFRIRYIHRPCLQVIEAVLVAAVTATVAFVLIYSSRDCQPLQGGSMSYPLQLFCADGEYNSMAAAFFNTPEKSVVSLFHDPPGSYNPLTLGLFTLVYFFLACWTYGLTVSAGVFIPSLLIGAAWGRLFGISLSYLTGAAIWADPGKYALMGAAAQLGGIVRMTLSLTVIMMEATSNVTYGFPIMLVLMTAKIVGDVFIEGLYDMHIQLQSVPFLHWEAPVTSHSLTAREVMSTPVTCLRRREKVGVIVDVLSDTASNHNGFPVVEHADDTQPARLQGLILRSQLIVLLKHKVFVERSNLGLVQRRLRLKDFRDAYPRFPPIQSIHVSQDERECTMDLSEFMNPSPYTVPQEASLPRVFKLFRALGLRHLVVVDNRNQVVGLVTRKDLARYRLGKRGLEELSLAQT
notes: CLC-7 (CLCN7) chloride-proton exchanger, human; synthesized gene (SynBio); called full-length in the results for the human CLC-7 expressed alone; the methods describe only the mCerulean construct used for the complex with OSTM1; also called hsCLC-7; hsCLCN7; not shown: mCerulean, C-terminal, cleaved

Data set [1] concerns the target chicken CLC-7 (Gallus gallus (chicken)). In words: cryo-EM structure; purified ggCLC-7 at 2 mg/ml in LMNG, 50 mM Tris-HCl pH 8, 150 mM KCl, 2 mM DTT; C2 symmetry imposed.
The target of the data set “human CLC-7” is B2. Put plainly: cryo-EM structure; purified co-expressed hsCLC-7/OSTM1 complex at 2 mg/ml, supplemented with 1 mM ATP and 0.1% LMNG; 50 mM Tris-HCl pH 8, 150 mM KCl, 2 mM DTT; C2 symmetry imposed, local refinements. Conditions: both partners purified.
Data set [2] concerns the molecule itself. The data set is described as above.

Regarding chicken CLC-7 (natural protein), the stoichiometry N in data set [1] was 2.

B1: human osteopetrosis-associated transmembrane protein 1 (OSTM1) (natural protein)
chain: ALPFGSSPHRVFHDLLSEQQLLEVEDLSLSLLQGGGLGPLSLPPDLPDLDPECRELLLDFANSSAELTGCLVRSARPVRLCQTCYPLFQQVVSKMDNISRAAGNTSESQSCARSLLMADRMQIVVILSEFFNTTWQEANCANCLTNNSEELSNSTVYFLNLFNHTLTCFEHNLQGNAHSLLQTKNYSEVCKNCREAYKTLSSLYSEMQKMNELENKAEPGTHLCIDVEDAMNITRKLWSRTFNCSVPCSDTVPVIAVSVFILFLPVVFYLSSFLHSEQKKRKLILPKRLKSSTSFANIQENSN
modifications: N-linked carbohydrate at asparagines 93, 128, 163, 184, 194, 263 and 274; five disulfide bonds in the luminal domain
notes: OSTM1, human, single-pass transmembrane protein; synthesized gene (SynBio); C-terminal cytoplasmic domain disordered in the structure; Printed residue numbers appear to count on the precursor; also called hsOSTM1; beta-subunit of CLC-7; not shown: mVenus, C-terminal, cleaved
B1: in the data set with human CLC-7, the binding result is given as “binds”. For the same molecule, the “stoichiometry N” value in data set [2] stood at 2.
For the molecule B2, the “stoichiometry N” value in data set [2] stood at 2.
